By Kd is commonly meant the equilibrium constant for the complex coming apart.

Data on one substance can be found in article PMC4066779.

The series deals with GST-DDX6 (human). The experiment in a line: EMSA. (A gel shift assay detects complexes by their altered migration in electrophoresis.)

Substance CUG-200 RNA had a Kd of less than 250 nM.
